Laboratory results published in article PMC2850574 (Biochemistry, 2010).
Ends that are not written are not given here.

What was measured:
SecA-Cys-256 = SecA-Cys-256 (Escherichia coli, UniProt P10408, C885S/C887S/C896S/C98S/T256C); assay: Signal peptide binding to SecA-Cys-256 by fluorescence anisotropy
SecAΔ11-Cys-190 = SecAΔ11-Cys-190 (Escherichia coli, UniProt P10408, C885S/C887S/C896S/C98S/N190C); assay: Binding of SP22 to monomeric SecAΔ11-Cys-190 by FRET titration
SecA-Cys-190 = assay: Specificity control: scrambled SP22 binding/FRET; design: species or system Escherichia coli; conditions: 7 μM IAEDANS-labeled SecA-Cys-190, 18 μM IANBD-labeled scrambled SP22; data not shown
[1] = biological target: IANBD-labeled alkaline phosphatase signal peptide SP22 (E. coli); assay: fluorescence polarisation
[2] = biological target: IAEDANS-labeled SecAΔ11-Cys-190 (E. coli) (UniProt P10408)
[3] = biological target: LamB signal peptide signal peptide (Escherichia coli) (UniProt P02943); conditions: cited from earlier work
[4] = biological target: T1, wild-type SecA (Escherichia coli SecA ATPase) (E. coli, UniProt P10408 9-836); assay: fluorescence polarisation
[5] = biological target: T1, wild-type SecA (Escherichia coli SecA …); assay: fluorescence polarisation; remark: listed apart in the source

Molecule: MKQSTIALALLPLLFTPVTKAC-NH2 [SP22]
- Kd (SecA-Cys-256): 1100 ± 200 nM
- Kd (SecAΔ11-Cys-190): 3060 ± 1130 nM

Molecule: PLMDTEITLKFLSPLQALKTVC-NH2 [scrambled SP22]
- high-affinity binding and FRET (SecA-Cys-190): neither high-affinity binding nor FRET was detected

Molecule: SecA-Cys-256 (unlabeled) (from UniProt P10408 9-836) (natural protein)
- Kd [1]: 1100 nM

Molecule: IAEDANS-labeled SecAΔ11-Cys-190 (from UniProt P10408 9-836) (natural protein)
- Kd [2]: 230 nM

Molecule: SecA (from UniProt P10408)
- Kd [3]: 100000 nM

Molecule: MKQSTIALALLPLLFTPVTKAC(IANBD)-NH2 [IANBD-labeled alkaline phosphatase signal peptide SP22]
- stoichiometry N [4]: 1 mole ratio of signal peptide to SecA
- Kd [5]: 1400 ± 200 nM
